The numbers were not newly measured in patent US9056141B2, “Thiol-ene click chemistry for drug conjugates” (priority 2012, dated 2015), which cites them from elsewhere.

For this data set the following is noted: patients receiving Adcetris treatment.

Consider brentuximab vedotin [Adcetris], for which the “patients in clinical trials experiencing serious adverse events” value is recorded as 31%. In addition, the “patients discontinuing the treatment due to adverse events” value (clinical trials) is reported as 21%.
